Test results from patent US20190185530A1 (WESTFAELISCHE WILHELMS UNIVERSITAET MUENSTER, published 2019).
Positions count from the first letter of the chain named. Names may count otherwise.

T1: human S100A9 protein of Uniprot accession no. P06702 (recombinant, wild type) (human, UniProt P06702 2-114)
T1 construct: Recombinant; also called recS100A9; S100A9 wt
T1 sequence: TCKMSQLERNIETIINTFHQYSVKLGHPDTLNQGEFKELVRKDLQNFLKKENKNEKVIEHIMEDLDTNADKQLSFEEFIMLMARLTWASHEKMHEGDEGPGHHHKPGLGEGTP

B1: human S100A8 protein of Uniprot accession no. P05109 (recombinant) (other)
chain: LTELEKALNSIIDVYHKYSLIKGNFHAVYRDDLKKLLETECPQYIRKKGADVWFKELDINTDGAVNFQEFLILVIKMGVAAHKKSHEESHKE
notes: Recombinant; also called recS100A8
B2: recS100A8/S100A9(N69A+E78A) mutant heterodimer (other)
chain 1: B1 chain
chain 2: T1 sequence with N68A, E77A
notes: Heterodimer tested for association with itself into a tetramer
B3: recS100A8/S100A9 wt heterodimer (other)
chain 1: B1 chain
chain 2: T1 sequence
notes: This heterodimer is the unit that joins with a second one to form the (S100A8/S100A9)2 tetramer when calcium is present; also called recS100A8/S100A9 wt complexes; wt S100A8/S100A9
B4: recS100A8/S100A9(E78A) mutant heterodimer (other)
chain 1: B1 chain
chain 2: T1 sequence with E77A
notes: as for B2
B5: recS100A8/S100A9(N69A) mutant heterodimer (other)
chain 1: B1 chain
chain 2: T1 sequence with N68A
notes: Heterodimer tested for association with itself into a tetramer; also called recS100A8/S100A9(N69A) mutant complexes
B6: S100A9 (N69A+E78A), mutant of human S100A9 having a double Asn69→Ala and Glu78→Ala substitution (other)
chain: T1 sequence with N68A, E77A
B7: S100A9 (N69A), mutant of human S100A9 having a single Asn69→Ala substitution (other)
chain: T1 sequence with N68A
B8: S100A9 (E78A), mutant of human S100A9 having a single Glu78→Ala substitution (other)
chain: T1 sequence with E77A
B9: wild type human S100A12 protein (recombinant), single chain (other)
chain: TKLEEHLEGIVNIFHQYSVRKGHFDTLSKGELKQLLTKELANTIKNIKDKAVIDEIFQGLDANQDEQVDFQEFISLVAIALKAAHYHTHKE
notes: also called recS100A12 wt; wtS100A12

Key:
[1] = target: T1, human S100A9 protein of Uniprot …; assay: MALDI-MS, native conditions, without calcium
Source text: (§1) FIG. 5: MALDI mass spectra in the absence and presence of calcium under native solvent conditions. (a) MALDI mass spectra of recS100A8/S100A9 wt complexes in the absence (left) and presence (right) of calcium using 2,6-dihydroxy-acetophenone as matrix. The mass spectra between m/z 20,000 and 100,000 together with an inset between m/z 46,000 and 50,000 are shown. T⁺, singly charged; T²⁺, doubly charged; T³⁺, triply charged tetramer. (b) MALDI mass spectra of recS100A8/S100A9(N69A) mutant complexes in the absence (left) and presence (right) of calcium.
S100A8 and S100A9 exist as heterodimers in the absence of calcium, and these heterodimeric complexes associate to (S100A8/S100A9)₂ tetramers upon calcium-binding. […] In the absence of calcium, samples show intense signals of singly charged heterodimers. […] Other prominent signals are detected at molecular masses of around 24 kDa and 16 kDa, representing doubly charged (T2+) or triply charged (T3+) tetramers in accordance with results reported earlier for the native proteins purified from human granulocytes. The number of Ca2+ bound to the tetramers was calculated from the difference between the observed masses of the tetramers and the sum of the calculated theoretical molecular masses of the monomeric components.

[2] = target: the molecule itself; assay: MALDI-MS, native conditions, with calcium (heterodimer to heterodimer)
Source text: as §1

[3] = target: the molecule itself; assay: glycerol density gradient centrifugation with calcium, SDS-PAGE of fractions (heterodimer to heterodimer)
Procedure: (§2) FIG. 7: Density gradient centrifugation of S100A8/S100A9 proteins. wt and mutant recS100A8/S100A9 complexes were loaded on a glycerol gradient in the presence of either 1 mM EGTA or 100 μM Ca2+. After centrifugation, successive fractions of the gradients were analyzed by SDS-PAGE. […] Addition of calcium induced a marked shift for recS100A8/S100A9 wt to higher glycerol densities, whereas for the mutant complexes recS100A8/S100A9(N69A) and recS100A8/S100A9(E78A) no shift was observed.

[4] = target: B1; assay: ESI-MS, native conditions
[5] = target: B1; assay: glycerol density gradient centrifugation with EGTA, SDS-PAGE of fractions
Procedure: as §2

[6] = target: the molecule itself; assay: glycerol centrifugation with EGTA, Bradford assay of fractions (homodimer)
Procedure: FIG. 8: Glycerol centrifugation of S100A12 proteins. Wild type (wt) and mutant recS100A12 complexes were loaded on a 15% glycerol solution in the presence of either EGTA or Ca²⁺ or Zn²⁺ or Ca²⁺/Zn²⁺. Buffer conditions were 20 mM HEPES, 140 mM NaCl, pH 7.4. After centrifugation, successive fractions of the gradients were analyzed by the colorimetric assay Bradford. […] Addition of calcium or zinc alone induced no shift for wtS100A12 to higher glycerol fractions. Addition of calcium plus zinc induced a marked shift for wtS100A12 to higher glycerol fractions, whereas for the mutant complex recS100A12(E73A) no shift was observed. FIG. 8A: Protein concentrations of collected fractions determined by Bradford assay. Sample A: S100A12 wild type+2 mM EGTA, sample B S100A12 wild type+5 mM CaCl₂, sample C: S100A12 wild type+1 mM Zn, sample D S100A12 wild type+200 μM Zn, sample E: S100A12 wild type+5 mM CaCl₂+200 μM Zn, sample F: S100A12 wild type+2.5 mM CaCl₂+100 μM Zn FIG. 8B: Summary of collected and analysed fractions of wtS100A12 (see FIG. 8A) in the presence or absence of bivalent cations as indicated in the figure. FIG. 8C Summary of collected and analysed fractions of wtS100A12 and recS100A12E73A mutant in the presence (5 mM CaCl₂+200 μM Zn, 2.5 mM CaCl₂+100 μM Zn) or absence (2 mM EGTA) of bivalent cations as indicated in the figure.

Binder: B1
binding result [1]: binds

Binder: B2
binding result [2]: no binding

Binder: B3
binding result [3]: binds

Binder: B4
binding result [2]: no binding

Binder: B5
binding result [2]: no binding

Binder: B6
binding result [4]: binds

Binder: B7
binding result [5]: binds

Binder: B8
binding result [5]: binds

Binder: B9
binding result [6]: binds
